B1: Hairpin Ribozyme (parent)
chain: GUCCUCUUUCACGUGCGCGUGAAAGAGAGAAGUGAACCAGAGAAACACACGUUGUGGUAUAUUACCUGGUA

Variants of: B1
Assay: self-cleavage, relative activity (ratio to wild type); higher = more cleavage; co-transcriptional

Row | Variant | self-cleavage
1 | GUCCUCUUUCACGUGCGCUUGAAAGAGAGAAGUGAACGAGAGAAACACACGUUGUGGUAUAUUACCUGGUA | 0.225
2 | GUCCUCUUUCACGUGCGCUUGAAAGAGAGAGGUGAACCAGAGAAACACACGUUGUGGUAUAUUACCUGGUA | 0.624
3 | GUCCUCUUUCACGUGCGCUUGAAAGAGAGAAGUGAACCAGAGAAACACACGUUGUGGUAUUUUACCUGGUA | 0.183
4 | GUCCUCUUUCACGUGCGCUUGAAAGAGAGAAGUGAACCAGAGAAAGACACGUUGUGGUAUAUUACCUGGUA | 0.157
5 | GUCCUCUUUCACGUGCGCUUGAAAGAGAGAAGUGAACCAGAGAAAAACACGUUGUGGUAUAUUACCUGGUA | 0.17
6 | GUCCUCUUUCACGUGCGCUUGAAAGAGAGAAGUGAACCAGAGAAACACACGUUGUGGUCUAUUACCUGGUA | 0.242
7 | GUCCUCUUUCACGUGCGCUUGAGAGAGAGAAGUGAACCAGAGAAACACACGUUGUGGUAUAUUACCUGGUA | 0.932
8 | GUCCUCUUUCACGUGCGCUUGAAAGAGAGAACUGAACCAGAGAAACACACGUUGUGGUAUAUUACCUGGUA | 0.137
9 | GUCCUCUUUCACGUGCGCUUGAAAGAGAGAAUUGAACCAGAGAAACACACGUUGUGGUAUAUUACCUGGUA | 0.118
10 | GUCCUCUUUCACGUGCGCUUGAAAGAGAGAAGUGAACCAGAGAAACACACGUUGUGGUAUAUUACUUGGUA | 0.334
11 | GUCCUCUUUCACGUGCGCUUGAAAGAGAGAAGUGAACCAGUGAAACACACGUUGUGGUAUAUUACCUGGUA | 1.24
12 | GUCCUCUUUCACGUGCGCUUGGAAGAGAGAAGUGAACCAGAGAAACACACGUUGUGGUAUAUUACCUGGUA | 0.715
13 | GUCCUCUUUCACGUGCGCUUGAACGAGAGAAGUGAACCAGAGAAACACACGUUGUGGUAUAUUACCUGGUA | 0.79
14 | GUCCUCUUUCACGUGCGCUUGAAAGAGAGAAGUGAAGCAGAGAAACACACGUUGUGGUAUAUUACCUGGUA | 0.341
15 | GUCCUCUUUCACGUGCGCUUGAAAGAGAGAAGUGCACCAGAGAAACACACGUUGUGGUAUAUUACCUGGUA | 0.809
16 | GUCCUCUUUCACGUGCGCUUGAAAGAGAGAAGUGAACCAGACAAACACACGUUGUGGUAUAUUACCUGGUA | 0.492
17 | GUCCUCUUUCACGUGCGCUUGAAAGAGAGAAGUGAACCAGAGAAACACACGAUGUGGUAUAUUACCUGGUA | 0.881
18 | GUCCUCUUUCACGUGCGCUUGAAAGAGAGAAGUGAACCAGAGAAACACACGCUGUGGUAUAUUACCUGGUA | 0.818
19 | GUCCUCUUUCACGUGCGCUUGAAAGAGAGAAGUGAACCAGAGAAACACACGUUGUUGUAUAUUACCUGGUA | 0.179

Row | Variant | self-cleavage
20 | GUCCUCUUUCACGUGCGCUUGAAAGGGAGAAGUGAACCAGAGAAACACACGUUGUGGUAUAUUACCUGGUA | 0.849
21 | GUCCUCUUUCACGUGCGCUUGAAAGCGAGAAGUGAACCAGAGAAACACACGUUGUGGUAUAUUACCUGGUA | 0.238
22 | GUCCUCUUUCACGUGCGCUUGAAAGAGAGAAGUGAACCAUAGAAACACACGUUGUGGUAUAUUACCUGGUA | 0.194
23 | GUCCUCUUUCACGUGCGCUUGAAAGAGAGAAGUGAACCAGAGAAACACACGUUGUGUUAUAUUACCUGGUA | 0.207
24 | GUCCUCUUUCACGUGCGCUUGAAAGAGAGAAGUGAACCAGAGAAACACAGGUUGUGGUAUAUUACCUGGUA | 0.199
25 | GUCCUCUUUCACGUGCGCUUGAAAGAGAGAAGUGAACCAGAGAAACACACGUUGUGGUAUAUUAUCUGGUA | 0.306
26 | GUCCUCUUUCACGUGCGCUUGAAAGAGAGAAGUGAACCAGAGAAACUCACGUUGUGGUAUAUUACCUGGUA | 0.211
27 | GUCCUCUUUCACGUGCGCUUUAAAGAGAGAAGUGAACCAGAGAAACACACGUUGUGGUAUAUUACCUGGUA | 0.784
28 | GUCCUCUUUCACGUGCGCUUGAAAGAGAGCAGUGAACCAGAGAAACACACGUUGUGGUAUAUUACCUGGUA | 0.128
29 | GUCCUCUUUCACGUGCGCUUGAAAGAGAGAAGUGAACCAGAGAAACACACGUUCUGGUAUAUUACCUGGUA | 0.437
30 | GUCCUCUUUCACGUGCGCUUGAAAGAGAGAAGUGAACCAGAGACACACACGUUGUGGUAUAUUACCUGGUA | 0.275
31 | GUCCUCUUUCACGUGCGCUGGAAAGAGAGAAGUGAACCAGAGAAACACACGUUGUGGUAUAUUACCUGGUA | 0.707
32 | GUCCUCUUUCACGUGCGCUUGAAAGAGAGAAGUGAACCUGAGAAACACACGUUGUGGUAUAUUACCUGGUA | 0.324
33 | GUCCUCUUUCACGUGCGCUUGAAAGAGAGAAGUGAACCCGAGAAACACACGUUGUGGUAUAUUACCUGGUA | 0.502
34 | GUCCUCUUUCACGUGCGCUUGAAAGAGAGAAGCGAACCAGAGAAACACACGUUGUGGUAUAUUACCUGGUA | 0.202
35 | GUCCUCUUUCACGUGCGCUUGAAAGAGAGAAGAGAACCAGAGAAACACACGUUGUGGUAUAUUACCUGGUA | 0.237
36 | GUCCUCUUUCACGUGCGCUUGAAAGAGAGAAGGGAACCAGAGAAACACACGUUGUGGUAUAUUACCUGGUA | 0.117
37 | GUCCUCUUUCACGUGCGCUUGAAAGAGAGAAGUGAACCAGAGAAACACACGUUGUGGUAUAUUACCUAGUA | 0.286
38 | GUCCUCUUUCACGUGCGCUUGAAAGAGAGAAGUGAACCAGAGAAACAUACGUUGUGGUAUAUUACCUGGUA | 0.162

From the RNAGym collection of RNA variant scans (doi:10.7554/elife.80360)
